Here are results for two substances from patent publication US20160122387A1, “Angiotensin Peptide and Pharmaceutical Compositions for Disease Treatment” (UNIVERSIDADE FEDERAL DE MINAS GERAIS - UFMG, priority 2012, published 2016).

The target in assay [1] is T1, Mas receptor (Rattus norvegicus, UniProt P12526).
T1 construct: from tissue; host or cells: SHR rat thoracic aorta rings and mesenteric artery rings
T1 sequence (P12526 1-324): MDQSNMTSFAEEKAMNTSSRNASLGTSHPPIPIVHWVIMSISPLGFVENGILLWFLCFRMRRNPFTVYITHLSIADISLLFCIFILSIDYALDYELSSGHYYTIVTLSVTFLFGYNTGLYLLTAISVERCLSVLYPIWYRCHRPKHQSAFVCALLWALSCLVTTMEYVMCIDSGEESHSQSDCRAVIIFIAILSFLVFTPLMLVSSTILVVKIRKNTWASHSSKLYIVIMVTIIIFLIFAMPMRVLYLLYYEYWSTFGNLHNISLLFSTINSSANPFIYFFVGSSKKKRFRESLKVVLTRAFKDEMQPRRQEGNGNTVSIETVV
Nature of the assay: Vasorelaxation in SHR mesenteric rings in the presence of Mas receptor antagonist A-779. The method, then: Rings (2.0 mm) of mesenteric artery (2nd and/or 3rd branches) in spontaneously hypertensive rats (SHR), free from adipose and connective tissue, were maintained in a gasified solution (95% 02 and 5% CO2) of Krebs-Hanseleit, at 37° C. After a 15 minute stabilization period, the artery was stretched, gradually, to a resting tension considered optimal with respect to its inner diameter. For this, in each arterial segment, the voltage/diameter was calculated by internal circumference which corresponds to a transmural pressure of 100 mmHg for a relaxed vessel in situ (IC100) using software specific for standardization resistance arteries. For the experiments, the arteries were maintained with an internal circumference, IC1, calculated using the formula IC1=0.90×IC100, in which the development of strength is maximum, as previously described by Mulvany and Halpern (1977). The effective luminal diameter was determined according to the I1=IC1/π equation. […]
The presence of functional endothelium was assessed by the ability of acetylcholine [ACh] […] The mechanical activity was recorded isometrically using a myograph, which was connected to a system for data acquisition and to a computer.
The SHR vessels were pre-contracted with sub-maximal concentrations of phenylephrine (0.1 μmol/L). […] The result was expressed as a percentage of decrease in peak concentration induced by phenylephrine. […]

In assay [2] the target is T1, Mas receptor. Nature of the assay: Vasorelaxation in SHR aortic rings in the presence of Mas receptor antagonists A-779 and D-Pro. The method, then:
Three- to four-mm rings of the descending thoracic aorta in spontaneously hypertensive rats (SHR), free from adipose and connective tissue, were maintained in a gasified solution (95% 02 and 5% CO2) of Krebs-Henseleit, at 37° C. under a tension of 1.0 g for 1 hour for stabilization. The presence of functional endothelium was assessed by the ability of acetylcholine [ACh] (10 μmol/L) to induce more than 70% relaxation of vessels pre-contracted with phenylephrine (0.1 μmol/L). The mechanical activity, recorded isometrically by a force transducer, was fed into a recorder-amplifier and a computer equipped with an analog-digital converter board, using CVMS data acquisition/recording software.
The SHR vessels were pre-contracted to the same voltage level (approximately 1.0 g tension) at the submaximal concentration of phenylephrine (0.1 μmol/L). Mas receptor antagonists, A-779 and D-Pro, were added to […] immediately before adding the arg0-Ang-(1-7) in increasing cumulative concentrations. Results are presented as mean±SEM. One-way analysis of variance (ANOVA) with the Newman-Keuls post-test for multiple comparisons was used to compare the concentration response curves obtained in the aortic rings. The result was expressed as the percentage of decrease in peak concentration induced by phenylephrine. All statistical analyses were considered significant when p<0.05.

For assay [3], the target named is rat receptor Mas (rat) (UniProt P12526). Put plainly: cell-based or functional assay.

Square brackets hold non-standard residues; d marks the D form. Ends that are not written are not given here.

Regarding “Asp-Arg-Val-Tyr-Ile-His-D-Ala (DRVYIH[dA]) [A-779]”, the “antagonist effect on the vasorelaxation produced by arg0-Ang-(1-7)” value in assay [1] and in assay [2] was “blocked the vasorelaxant effect of the peptide” in each case.
In the case of arg0-angiotensin-(1-7) (peptide), in assay [3], the Emax of vasorelaxation by arg0-Ang-(1-7) in SHR mesenteric artery rings in the presence of A-779 stood at 14.1%, the Emax of vasorelaxation by arg0-Ang-(1-7) in SHR rat aortic rings in the presence of A-779 is 14% and the Emax of vasorelaxation by arg0-Ang-(1-7) in SHR rat aortic rings in the presence of D-Pro amounted to 11%.
